Tests used:
[1] = molecular target: T1, cMet-Fc fusion protein (extracellular domain of the cMet receptor expressed as an Fc-fusion protein) (human, UniProt P08581 25-932); test: phage ELISA on cMet-Fc, competitor HGF 500 ng/mL
T1 construct: extracellular domain; also called soluble cMet-Fc-fusion protein; soluble cMet receptor; not shown: Fc part
Protocol: (§1) These assays were conducted using the peptide-displaying phage discovered from the initial selection and screening campaigns using the first generation peptide libraries. Briefly, 96-well plates were coated overnight at 4 C with 0.5 μg/mL of cMet-Fc fusion protein or TRAIL-Fc fusion protein (background). The plates were blocked for 2 hours at 37 C with 3% BSA in PBST. […] This was followed by an addition of 30 μL of peptide-displaying phage overnight culture to each well. The plates were incubated for 2 hours at room temperature, washed with PBST and cMet-binding peptide-displaying phage was detected using an HRP-conjugated anti-M13 antibody.

[2] = molecular target: T1, cMet-Fc fusion protein (extracellular …); test: phage ELISA on cMet-Fc, competitor HGF 100 ng/mL
Protocol: as §1

[3] = molecular target: T2, human cMet expressed on 3T3 cells (human, UniProt P08581 25-1390); test: whole cell phage ELISA, 3T3 human cMet vs 3T3
T2 construct: whole, on cells; cells fixed with glutaraldehyde; also called cell surface-expressed human cMet; 3T3 cells that over-express human cMet
T2 sequence (P08581 25-1390): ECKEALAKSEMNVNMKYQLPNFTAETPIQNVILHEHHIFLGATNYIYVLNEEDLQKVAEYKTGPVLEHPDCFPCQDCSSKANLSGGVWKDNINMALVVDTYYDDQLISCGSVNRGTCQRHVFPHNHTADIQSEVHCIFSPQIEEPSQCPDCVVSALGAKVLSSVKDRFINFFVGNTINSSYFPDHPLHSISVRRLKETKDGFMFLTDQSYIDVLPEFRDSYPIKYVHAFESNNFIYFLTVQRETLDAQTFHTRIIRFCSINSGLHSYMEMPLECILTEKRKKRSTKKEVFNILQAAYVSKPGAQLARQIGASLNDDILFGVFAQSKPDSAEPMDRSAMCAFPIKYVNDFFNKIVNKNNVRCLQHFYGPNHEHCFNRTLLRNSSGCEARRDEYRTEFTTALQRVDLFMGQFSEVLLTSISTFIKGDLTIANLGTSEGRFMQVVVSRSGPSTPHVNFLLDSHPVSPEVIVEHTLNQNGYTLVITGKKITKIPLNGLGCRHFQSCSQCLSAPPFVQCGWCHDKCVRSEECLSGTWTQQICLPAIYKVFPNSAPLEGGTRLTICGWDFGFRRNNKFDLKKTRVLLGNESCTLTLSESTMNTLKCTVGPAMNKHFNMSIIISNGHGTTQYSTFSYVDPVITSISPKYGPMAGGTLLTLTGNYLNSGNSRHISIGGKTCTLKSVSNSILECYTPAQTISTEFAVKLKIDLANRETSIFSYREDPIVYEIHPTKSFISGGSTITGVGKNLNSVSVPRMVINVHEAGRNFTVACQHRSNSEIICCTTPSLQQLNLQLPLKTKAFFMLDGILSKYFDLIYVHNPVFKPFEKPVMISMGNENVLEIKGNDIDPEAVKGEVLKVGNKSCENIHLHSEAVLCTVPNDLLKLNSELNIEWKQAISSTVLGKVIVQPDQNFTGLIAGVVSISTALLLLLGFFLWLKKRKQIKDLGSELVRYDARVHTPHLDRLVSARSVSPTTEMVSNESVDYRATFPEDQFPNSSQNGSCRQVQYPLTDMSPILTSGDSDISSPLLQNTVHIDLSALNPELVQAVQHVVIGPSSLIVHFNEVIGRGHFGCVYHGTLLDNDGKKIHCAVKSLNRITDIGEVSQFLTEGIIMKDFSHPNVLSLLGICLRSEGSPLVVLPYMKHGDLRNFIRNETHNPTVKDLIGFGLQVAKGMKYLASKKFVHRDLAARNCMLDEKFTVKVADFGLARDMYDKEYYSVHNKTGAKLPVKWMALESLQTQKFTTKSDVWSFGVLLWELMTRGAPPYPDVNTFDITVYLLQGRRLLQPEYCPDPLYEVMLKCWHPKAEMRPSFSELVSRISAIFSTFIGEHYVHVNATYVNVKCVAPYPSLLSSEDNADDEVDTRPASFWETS
Protocol: Whole cell ELISAs were performed using 3T3 cells that over-express human cMet. […] Briefly, 96-well plates were seeded with 10⁵ cells per well. The plates were centrifuged for 5 minutes at 1600 rpm to pellet the cells. The resulting cell layer was fixed with 0.1% (v/v) glutaraldehyde for 12 minutes at 37 C. […] Peptide-displaying phage also were blocked in the above solution for 1 hour at 37 C. 100 μL of blocked phage was then added to each well and the plates were incubated for 1 hour at room temperature. The plates were washed with PBST. cMet-binding peptide-displaying phage were detected using an HRP-conjugated anti-M13 antibody.

[4] = molecular target: T1, cMet-Fc fusion protein (extracellular …); test: phage ELISA, cMet-Fc vs TRAIL-Fc
Protocol: Protein phage ELISAs using peptide-displaying phage isolates from the various selection campaigns were performed to determine specificity of the peptides for cMet versus an unrelated Fc-fusion protein (TRAIL-Fe). Briefly, 384-well plates were coated overnight at 4 C with 0.5 μg/mL of cMet-Fc fusion protein or TRAIL-Fc fusion protein (background). The plates were blocked for 2 hours 37 C with 3% (w/v) BSA in PBS containing 0.05% (v/v) Tween-20 (PBST). The plates were washed with PBST and 100 μL of peptide-displaying phage were added to each well. The plates were incubated for 2 hours at room temperature and washed with PBST. cMet-binding peptide-displaying phage were detected using an HRP-conjugated anti-M13 antibody.

T1 sequence (P08581 25-932): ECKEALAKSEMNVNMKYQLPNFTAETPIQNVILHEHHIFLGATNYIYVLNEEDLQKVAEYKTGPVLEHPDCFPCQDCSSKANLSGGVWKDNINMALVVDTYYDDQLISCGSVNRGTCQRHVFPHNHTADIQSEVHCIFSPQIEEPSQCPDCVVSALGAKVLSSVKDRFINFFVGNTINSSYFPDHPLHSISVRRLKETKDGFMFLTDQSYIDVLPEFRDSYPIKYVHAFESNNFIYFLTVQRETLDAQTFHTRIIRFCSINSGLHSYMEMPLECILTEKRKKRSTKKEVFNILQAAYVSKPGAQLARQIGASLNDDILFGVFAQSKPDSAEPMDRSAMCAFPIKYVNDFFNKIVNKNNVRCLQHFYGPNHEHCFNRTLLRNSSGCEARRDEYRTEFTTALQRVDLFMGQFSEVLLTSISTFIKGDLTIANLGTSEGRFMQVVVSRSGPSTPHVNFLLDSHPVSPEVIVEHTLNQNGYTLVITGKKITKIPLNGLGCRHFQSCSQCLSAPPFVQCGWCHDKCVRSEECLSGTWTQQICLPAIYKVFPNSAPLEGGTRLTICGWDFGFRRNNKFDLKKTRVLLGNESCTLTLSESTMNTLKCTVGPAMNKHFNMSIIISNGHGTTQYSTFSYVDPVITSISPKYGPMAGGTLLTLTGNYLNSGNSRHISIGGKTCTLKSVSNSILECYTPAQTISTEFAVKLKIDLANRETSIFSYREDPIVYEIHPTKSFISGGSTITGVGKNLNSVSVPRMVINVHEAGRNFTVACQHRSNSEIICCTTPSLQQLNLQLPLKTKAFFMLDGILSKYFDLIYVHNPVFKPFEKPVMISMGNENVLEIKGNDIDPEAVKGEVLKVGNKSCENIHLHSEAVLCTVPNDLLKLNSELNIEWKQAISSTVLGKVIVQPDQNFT

Binder | % of binding in the absence of HGF [1] | % of binding in the absence of HGF [2] | WC ELISA (fold over background) [3] | Protein ELISA (fold over background) [4]
GSWRFCGGEYSFQVCQDVAP [545-C02 peptide-displaying phage (SEQ ID NO: 365)] | 31% | – | – | –
GSHHTCLDGFAGWRCTEVAP [546-E02 peptide-displaying phage (SEQ ID NO: 366)] | – | 74% | – | –
AGSIQCKGPPWFSCAMYGT [325-H05 peptide-displaying phage (SEQ ID NO: 048)] | 32% | 41% | 1.47 fold | 15.9 fold
AGTLSCSEEYKSCQLQGT [465-E09 peptide-displaying phage (SEQ ID NO: 027)] | 77% | 60% | 1.3 fold | 3.6 fold
AGPLFCFEWPSLCHWGGT [448-H02 peptide-displaying phage (SEQ ID NO: 033)] | 92% | 113% | 1.43 fold | 3.8 fold
ADAWMCEYFQWNCGDKGT [458-B05 peptide-displaying phage (SEQ ID NO: 046)] | 247% | 201% | 1.33 fold | 4.5 fold
AGPYSCHSESHDCKLMGT [465-C01 peptide-displaying phage (SEQ ID NO: 032)] | 23% | 267% | 1.27 fold | 3.2 fold
AGIWFCNNEEKSCWAYGT [471-A11 peptide-displaying phage (SEQ ID NO: 040)] | 80% | 85% | 1.37 fold | 3 fold
GSPEMCMMFPFLYPCNHHAP [548-F07 peptide-displaying phage (SEQ ID NO: 369)] | 37% | – | – | –
AGKTVCQKWESVCSGMGT [465-C11 peptide-displaying phage (SEQ ID NO: 038)] | 4% | 41% | 1.3 fold | 3.1 fold
GDGFLCRWENGWCEFWDP [545-E08 peptide-displaying phage (SEQ ID NO: 047)] | 57% | 81% | 1.3 fold | 4.7 fold
AGMDFCEGFWFLCIGNAT [571-C11 peptide-displaying phage (SEQ ID NO: 035)] | 72% | 107% | 1.23 fold | 3.5 fold
AGVTNCNLSTMFCFLHGT [465-F08 peptide-displaying phage (SEQ ID NO: 026)] | 116% | 68% | 1.3 fold | 3.8 fold
GSLIFCPYGECMMYAP [470-E11 peptide-displaying phage (SEQ ID NO: 005)] | 127% | 55% | 1.33 fold | 3.5 fold
AGQAVCEWGPFWCQMQGT [470-A02 peptide-displaying phage (SEQ ID NO: 031)] | 62% | 78% | 1.3 fold | 3.2 fold
AGKYMCEGFEWFCEMWGT [442-E08 peptide-displaying phage (SEQ ID NO: 037)] | 75% | 81% | 1.43 fold | 4.1 fold

— US20120039802A1 (published 2012)
